Experimental data: article doi:10.1101/2022.10.10.511578 (bioRxiv, 2022)
No end group written: not given here.

How the values were obtained:
arrestin2^1-393 = target: T1, arrestin2^1-393 (human); assay: NMR titration
T1 chain: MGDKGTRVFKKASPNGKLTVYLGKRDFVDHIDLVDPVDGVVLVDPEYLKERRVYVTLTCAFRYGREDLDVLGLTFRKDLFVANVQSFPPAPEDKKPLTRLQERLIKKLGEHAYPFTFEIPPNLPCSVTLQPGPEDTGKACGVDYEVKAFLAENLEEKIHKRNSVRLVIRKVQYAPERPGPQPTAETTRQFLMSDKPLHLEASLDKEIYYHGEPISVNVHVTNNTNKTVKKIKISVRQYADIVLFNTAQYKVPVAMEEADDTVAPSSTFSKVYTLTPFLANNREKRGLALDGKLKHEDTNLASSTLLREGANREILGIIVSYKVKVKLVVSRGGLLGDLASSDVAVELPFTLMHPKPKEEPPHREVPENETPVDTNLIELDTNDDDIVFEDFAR

[1] = target: T2, arrestin2^1-418 (C150L, C242V, C251V, C269S) (human); assay: SEC
T2 chain: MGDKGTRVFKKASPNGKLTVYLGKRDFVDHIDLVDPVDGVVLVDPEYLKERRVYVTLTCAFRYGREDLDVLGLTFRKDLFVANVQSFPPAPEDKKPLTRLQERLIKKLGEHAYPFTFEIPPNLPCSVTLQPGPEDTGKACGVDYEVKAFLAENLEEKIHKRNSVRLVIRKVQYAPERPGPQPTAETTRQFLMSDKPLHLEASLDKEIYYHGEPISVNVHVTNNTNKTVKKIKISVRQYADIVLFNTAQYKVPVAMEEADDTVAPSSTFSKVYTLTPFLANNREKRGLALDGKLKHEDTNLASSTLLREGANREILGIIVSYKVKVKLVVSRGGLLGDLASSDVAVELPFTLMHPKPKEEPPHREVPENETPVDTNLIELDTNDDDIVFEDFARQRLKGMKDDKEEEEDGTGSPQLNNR

arrestin2^1-359 = target: T3, arrestin2^1-359 (human); assay: crystal structure
T3 chain: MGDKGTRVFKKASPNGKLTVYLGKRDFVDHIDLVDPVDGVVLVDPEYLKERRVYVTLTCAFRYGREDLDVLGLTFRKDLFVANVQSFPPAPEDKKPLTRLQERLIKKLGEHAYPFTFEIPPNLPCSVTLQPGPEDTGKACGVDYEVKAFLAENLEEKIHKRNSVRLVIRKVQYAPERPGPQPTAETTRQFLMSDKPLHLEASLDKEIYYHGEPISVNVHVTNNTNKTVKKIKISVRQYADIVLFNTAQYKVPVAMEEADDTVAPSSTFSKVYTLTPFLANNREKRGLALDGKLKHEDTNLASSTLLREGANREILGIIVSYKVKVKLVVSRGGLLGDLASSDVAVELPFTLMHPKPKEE

| Binder | Kd (arrestin2^1-393) | binding result [1] | binding result (arrestin2^1-359) | fold lower affinity (than 6P or V2Rpp) (arrestin2^1-393) |
| --- | --- | --- | --- | --- |
| APERASSVYTRSTGEQEISVGL (also: phosphopeptide (6P), sites not given here) [CCR5 6P phosphopeptide] | 45 ± 6 µM | binds | binds | – |
| APERASSVYTRSTGEQEISVGL (also: phosphopeptide (3P2), sites not given here) [CCR5 3P2 phosphopeptide] | > 100 µM | binds | – | > 4 fold |
| APERASSVYTRSTGEQEISVGL (also: phosphopeptide (4P), sites not given here) [CCR5 4P phosphopeptide] | > 100 µM | – | binds | – |
| APERASSVYTRSTGEQEISVGL (also: three-fold phosphorylated, sites not given here) [CCR5 3P1 phosphopeptide] | > 100 µM | – | – | – |
| APERASSVYTRSTGEQEISVGL (not fully specified; five-fold phosphorylated; comprising pT343; whole pattern in Figure 1C) [CCR5 5P2 phosphopeptide] | 54 ± 6 µM | – | – | – |
| APERASSVYTRSTGEQEISVGL (also: five-fold phosphorylated, lacking pT343, sites not given here) [CCR5 5P1 phosphopeptide] | 147 ± 7 µM | – | – | – |
